Test: Standard 12α-HSDH activity determination (NADP+-dependent oxidation of cholic acid, absorption at 340 nm)
Format: biochemical
Design: unit not given here
Details: cell lysate
Method: The activity is defined as follows: 1 U of the enzyme corresponds to the amount of enzyme which catalyzes the reaction of 1 μmol/min of a 5 mM cholic acid solution in potassium phosphate buffer (50 mM, pH 8.0) at room temperature (i.e. about 20° C.-23° C.).
For the activity determination, 790 μl of potassium phosphate buffer (50 mM, pH 8.0), […] of cholic acid (50 mM in potassium phosphate buffer (50 mM, pH 8.0)) and 10 μl of enzyme solution to be measured were mixed in a cuvette. 100 μl of NADP^+ (2.5 mM) was added at the start of the reaction and the increase in the absorption at 340 nm was determined photometrically. The gradient over 30 s was determined at RT. Determination of the activity took place according to the Lambert-Beer's law.

[1] = E. coli BL21 (DE3), expression period 4 h
[2] = E. coli BL21 (DE3), expression period 22 h
[3] = E. coli Rosetta (DE3), expression period 4 h
[4] = E. coli Rosetta (DE3), expression period 22 h

B1: HSDH_short: N-terminally truncated short version of 12α-HSDH from Clostridium sp. group P strain 48-50, SEQ ID NO: 4 (protein)
chain: IFDGKVAIITGGGKAKSIGYGIAVAYAKEGANLVLTGRNEQKLLDAKEELERLYGIKVLPLAVDVTPSDESEDRVKEAVQKVIAEFGRIDVLINNAQASASGIPLSMQTKDHFDLGIYSGLYATFYYMRECYPYLKETQGSVINFASGAGLFGNVGQCSYAAAKEGIRGLSRVAATEWGKDNINVNVVCPLAMTAQLENFKLSYPEAYEKNLRGVPMGRFGDPELDIGRVCVQLGSPDFKYMSGETLTLEGGMGQRP
Activity [of culture medium] [1]: 12800
Activity [of culture medium] [2]: 33000
Activity [of culture medium] [3]: 3400
Activity [of culture medium] [4]: 24300

B2: HSDH_long: long version of 12α-HSDH from Clostridium sp. group P strain 48-50, SEQ ID NO: 2, recombinantly expressed in E. coli (protein, listed as Clostridium sp.)
chain: MDFIDFKEMGRMGIFDGKVAIITGGGKAKSIGYGIAVAYAKEGANLVLTGRNEQKLLDAKEELERLYGIKVLPLAVDVTPSDESEDRVKEAVQKVIAEFGRIDVLINNAQASASGIPLSMQTKDHFDLGIYSGLYATFYYMRECYPYLKETQGSVINFASGAGLFGNVGQCSYAAAKEGIRGLSRVAATEWGKDNINVNVVCPLAMTAQLENFKLSYPEAYEKNLRGVPMGRFGDPELDIGRVCVQLGSPDFKYMSGETLTLEGGMGQRP
Activity [of culture medium] [1]: 12700
Activity [of culture medium] [2]: 36800
Activity [of culture medium] [3]: 3100
Activity [of culture medium] [4]: 19500

Source: patent US20140147887A1, “NOVEL 12 ALPHA-HYDROXYSTEROID DEHYDROGENASES, PRODUCTION AND USE THEREOF” (PharmaZell GmbH, priority 2006, published 2014)
